Patent USRE48137E1, “Multivalent vaccine protection from Staphylococcus aureus infection” (UNIVERSITY OF MARYLAND, BALTIMORE, priority 2012, dated 2020)

System: S. aureus MRSA-M2
Assay: murine tibial implant model of S. aureus infection
Format: in vivo
Conditions: C57BL/6 mice, tibiae CFU at 21 days post-challenge; 12.5 μg per antigen IP at 28 and 14 days prior to challenge
Description: Mice. Inbred C57BL/6 (6-8 weeks old) were purchased from Jackson Laboratories (Bar Harbor, Me.). Mice were maintained under micro-isolator conditions in the animal facility at the University of Maryland Dental School (Baltimore, Md.), in accordance with protocols reviewed and approved by the Institutional Animal Care and Use Committee (IACUC).
Bacterial strain and preparation of infectious inocula. […] Cells were centrifuged, rinsed with PBS, counted via a Petroff Hausser counter, and diluted to 1×10^6 CFU/ml. […]
Bone Cultures. […] In addition, non-vaccinated mice (alum alone) and mice vaccinated with the quadrivalent vaccine, the single additional antigen SA0119, or all antigens combined were euthanized at 21 days post infection and tibial colony-forming units (CFUs) were determined as described above. Dissemination of the S. aureus infection was monitored by homogenizing kidneys and plating the homogenates as described above.
Statistical Analysis. Mean and SD were calculated and analyzed using Student's t-test with a P value of <0.05 to determine statistical significance. Experiments determining the percentage of mice still infected after vancomycin or PBS treatment were analyzed using Fishers Exact test with a p value of <0.05 for statistical significance. […]

B1: SACOL0119 vaccine: planktonic-specific monovalent vaccine; S. aureus polypeptide SA0119, SEQ ID NO:14 (protein, listed as Staphylococcus aureus)
chain: MKKLATVGSLIVTSTLVFSSMPFQNAHADTTSMNVPNKQSQNVQNHRPYGGVVPQGMTQAQYTELEKTLPQLSAGSNMQDYNMKLYDATQNIADKYNVIITTNVGVFKPHAVRDMNGHALPLTKDGNFYQTNVDANGVNHGGSEMVQNKTGHMSQQDHMNQNTHMNQQPQIQQGHMQSSNHQMMSPKANMHSSNHQMNQSNKKVLPAAGESMTSSILTASIAALLLVSGLFLAFRRRSTNK
bacterial clearance (percent of animals cleared of S. aureus): 40%
